Experimental data: patent US20240059789A1 (Janssen / Centocor, published 2024)
Where a chain is given by its changes, count along the chain named.

B1: PS3B1357 (bispecific antibody, human IgG1, lambda, L234A L235A)
heavy 1: QVQLQQSGPGLVKPSQTLSLTCAISGDSVFNNNAAWSWIRQSPSRGLEWLGRTYYRSKWLYDYAVSVKSRITINPDTSKNQFSLQLNSVTPEDTAVYYCARGYSSSFDYWGQGTLVTVSSASTKGPSVFPLAPSSKSTSGGTAALGCLVKDYFPEPVTVSWNSGALTSGVHTFPAVLQSSGLYSLSSVVTVPSSSLGTQTYICNVNHKPSNTKVDKKVEPKSCDKTHTCPPCPAPEAAGGPSVFLFPPKPKDTLMISRTPEVTCVVVSVSHEDPEVKFNWYVDGVEVHNAKTKPREEQYNSTYRVVSVLTVLHQDWLNGKEYKCKVSNKALPAPIEKTISKAKGQPREPQVYTLPPSREEMTKNQVSLTCLVKGFYPSDIAVEWESNGQPENNYKTTPPVLDSDGSFLLYSKLTVDKSRWQQGNVFSCSVMHEALHNHYTQKSLSLSPGK
light 1: QSALTQPASVSGSPGQSITISCTGTSSNIGTYKFVSWYQQHPGKAPKVMIYEVSKRPSGVSNRFSGSKSGNTASLTISGLQAEDEADYYCVSYAGSGTLLFGGGTKLTVLGQPKAAPSVTLFPPSSEELQANKATLVCLISDFYPGAVTVAWKADSSPVKAGVETTTPSKQSNNKYAASSYLSLTPEQWKSHRSYSCQVTHEGSTVEKTVAPTECS
heavy 2: EVQLVESGGGLVQPGGSLRLSCAASGFTFSSYAMSWVRQAPGKGLEWVSAISGGIGSTYYADSVKGRFTISRDNSKNTLWLQMNSLRAEDTAVYYCAKDGVGATPYYFDYWGQGTLVTVSSASTKGPSVFPLAPSSKSTSGGTAALGCLVKDYFPEPVTVSWNSGALTSGVHTFPAVLQSSGLYSLSSVVTVPSSSLGTQTYICNVNHKPSNTKVDKKVEPKSCDKTHTCPPCPAPEAAGGPSVFLFPPKPKDTLMISRTPEVTCVVVSVSHEDPEVKFNWYVDGVEVHNAKTKPREEQYNSTYRVVSVLTVLHQDWLNGKEYKCKVSNKALPAPIEKTISKAKGQPREPQVYTLPPSREEMTKNQVSLTCLVKGFYPSDIAVEWESNGQPENNYKTTPPVLDSDGSFFLYSRLTVDKSRWQQGNVFSCSVMHEALHNHYTQKSLSLSPGK
light 2: QSVLTQPPSVSAAPGQKVTISCSGSSSNIGINYVSWYQQLPGTAPKLLIYDNNKRPSGIPDRFSGSKSGTSATLGITGLQTGDEADYYCGTWDSSLSAVVFGGGTKLTVLGQPKAAPSVTLFPPSSEELQANKATLVCLISDFYPGAVTVAWKADSSPVKAGVETTTPSKQSNNKYAASSYLSLTPEQWKSHRSYSCQVTHEGSTVEKTVAPTECS
B2: PS3B1352 (bispecific antibody, human IgG1, lambda, L234A L235A)
heavy 1: B1 heavy 1 with G10R, K13R, I73V, K79R, S83T, V96L
light 1: B1 light 1 with G43D, M49L, I50L, N62S, E85Q, Y89H
heavy 2: B1 heavy 2
light 2: B1 light 2 with I31N, V99Y, G103T, L107V
B3: PS3B1353 (bispecific antibody, human IgG1, lambda, L234A L235A)
heavy 1: B1 heavy 1 with G10R, K13R, I73V, K79R, S83T, V96L
light 1: B1 light 1 with G43D, M49L, I50L, N62S, E85Q, Y89H
heavy 2: B1 heavy 2
light 2: B1 light 2

Biological target: T1, Human PSMA on prostate cancer cell lines (C4-2B, 22RV1) (human, UniProt Q04609 1-750)
Experiment: cell-based or functional assay

T1 sequence (Q04609 whole entry): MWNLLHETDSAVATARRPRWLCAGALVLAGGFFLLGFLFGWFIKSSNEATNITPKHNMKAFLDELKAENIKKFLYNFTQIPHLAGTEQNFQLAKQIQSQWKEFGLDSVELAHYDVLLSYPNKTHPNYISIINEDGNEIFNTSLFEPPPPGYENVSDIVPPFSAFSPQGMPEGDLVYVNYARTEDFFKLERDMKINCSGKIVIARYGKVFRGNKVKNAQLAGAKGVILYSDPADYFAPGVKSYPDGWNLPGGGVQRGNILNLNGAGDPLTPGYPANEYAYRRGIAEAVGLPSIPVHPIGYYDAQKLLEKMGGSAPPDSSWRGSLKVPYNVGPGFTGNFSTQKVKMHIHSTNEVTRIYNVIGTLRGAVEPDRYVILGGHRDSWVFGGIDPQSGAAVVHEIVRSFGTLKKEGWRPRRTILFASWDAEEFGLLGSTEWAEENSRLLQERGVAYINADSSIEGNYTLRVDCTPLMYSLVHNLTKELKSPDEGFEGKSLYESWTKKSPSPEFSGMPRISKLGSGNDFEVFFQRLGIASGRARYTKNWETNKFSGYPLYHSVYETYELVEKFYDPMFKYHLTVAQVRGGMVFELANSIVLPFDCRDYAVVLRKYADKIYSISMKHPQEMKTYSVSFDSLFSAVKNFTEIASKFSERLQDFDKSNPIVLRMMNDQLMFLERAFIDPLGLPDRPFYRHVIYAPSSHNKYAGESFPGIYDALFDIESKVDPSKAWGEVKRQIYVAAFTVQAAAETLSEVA

| Binder | % cytolysis at 120 hours (C4-2B, xCelligence, donor #1) at 80 pM [%] | % cytolysis at 120 hours (C4-2B, xCelligence, donor #1) at 0.4 nM [%] | % cytolysis at 120 hours (C4-2B, xCelligence, donor #1) at 2 nM [%] | % cytolysis at 120 hours (C4-2B, xCelligence, donor #1) at 10 nM [%] | % cytolysis at 120 hours (C4-2B, xCelligence, donor #1) at 50 nM [%] | % cytolysis at 120 hours (C4-2B, xCelligence, donor #2) at 80 pM [%] | % cytolysis at 120 hours (C4-2B, xCelligence, donor #2) at 0.4 nM [%] | % cytolysis at 120 hours (C4-2B, xCelligence, donor #2) at 2 nM [%] | % cytolysis at 120 hours (C4-2B, xCelligence, donor #2) at 10 nM [%] | % cytolysis at 120 hours (C4-2B, xCelligence, donor #2) at 50 nM [%] |
| --- | --- | --- | --- | --- | --- | --- | --- | --- | --- | --- |
| B1 | 100 | 100 | 100 | 100 | 100 | 100 | 100 | 100 | 100 | 100 |
| B2 | 77 | 100 | 100 | 100 | 100 | 0 | 100 | 100 | 100 | 100 |
| B3 | 100 | 100 | 100 | 100 | 100 | 100 | 100 | 100 | 100 | 100 |

Same assay, conditions: not given

| Binder | % cytolysis at 120 hours (C4-2B, xCelligence, donor #3) at 80 pM [%] | % cytolysis at 120 hours (C4-2B, xCelligence, donor #3) at 0.4 nM [%] | % cytolysis at 120 hours (C4-2B, xCelligence, donor #3) at 2 nM [%] | % cytolysis at 120 hours (C4-2B, xCelligence, donor #3) at 10 nM [%] | % cytolysis at 120 hours (C4-2B, xCelligence, donor #3) at 50 nM [%] |
| --- | --- | --- | --- | --- | --- |
| B1 | 100 | 100 | 100 | 100 | 100 |
| B2 | 9 | 100 | 100 | 100 | 100 |
| B3 | 100 | 100 | 100 | 100 | 100 |

Biological target: T1, Human PSMA on prostate cancer cell …
Experiment: cell-based or functional assay
Remark: another data set of the same source

| Binder | Cytotoxicity (C4-2B cells, 3:1 E:T ratio, 5 Day) at 0.3 nM [%] | Cytotoxicity (C4-2B cells, 3:1 E:T ratio, 5 Day) at 1.1 nM [%] | Cytotoxicity (C4-2B cells, 3:1 E:T ratio, 5 Day) at 3.3 nM [%] | Cytotoxicity (C4-2B cells, 3:1 E:T ratio, 5 Day) at 10 nM [%] | Cytotoxicity (C4-2B cells, 3:1 E:T ratio, 5 Day) at 30 nM [%] |
| --- | --- | --- | --- | --- | --- |
| B1 | 96 | 96 | 95 | 96 | 91 |
| B2 | 65 | 88 | 89 | 85 | 79 |
| B3 | 98 | 98 | 97 | 95 | 92 |
